T1: recombinant human IL-33 (human, UniProt O95760 112-270, limits assumed)
T1 sequence (looked up): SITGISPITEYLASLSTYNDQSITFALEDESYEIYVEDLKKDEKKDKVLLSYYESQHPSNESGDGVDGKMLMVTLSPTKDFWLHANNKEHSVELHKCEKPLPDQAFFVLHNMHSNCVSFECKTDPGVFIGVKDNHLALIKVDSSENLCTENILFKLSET

T2: recombinant human IL-4 (human, UniProt P05112 25-153)
T2 sequence (looked up): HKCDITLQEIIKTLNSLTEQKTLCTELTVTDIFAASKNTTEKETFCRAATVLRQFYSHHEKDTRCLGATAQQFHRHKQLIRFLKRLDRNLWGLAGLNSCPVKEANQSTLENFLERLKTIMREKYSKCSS


Assays:
Experiment in all cases: cell-based or functional assay
recombinant human IL-33 = biological target: T1, recombinant human IL-33
recombinant human IL-13 = recombinant human IL-13 (human, UniProt P35225 35-146)
Sequence of recombinant human IL-13 (P35225 35-146 limits assumed): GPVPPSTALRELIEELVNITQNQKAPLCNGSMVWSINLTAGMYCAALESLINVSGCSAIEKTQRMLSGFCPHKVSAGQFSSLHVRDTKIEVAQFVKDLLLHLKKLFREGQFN

recombinant human IL-4 = biological target: T2, recombinant human IL-4

Row | IL-33 WT Activation of SEAP Reporter Cells, potency of cytokine neutralization (recombinant human IL-33) [nM] | IL-13 Induced CD23 Expression, potency of cytokine neutralization (recombinant human IL-13) [nM] | IL-4 Induced CD23 Expression, potency of cytokine neutralization (recombinant human IL-4) [nM] | Binder
1 | 0.112 | 0.00901 | 0.0103 | IL13433-0006 (other) heavy: EVQLVESGGGLVQPGGSLRLSCAASGFTFSSYAMSWVRQAPGKGLEWVASISSGDTTYYPDSVKGRFTISRDNAKNSLYLQMNSLRAEDTAVYYCARNEGYYFGLTLWGQGTLVTVSSASTKGPSVFPKAPSSKSTSGGTAALGCLVKDYFPEPVTVSWNSGALTSGVHTFPAVLQSSGLYSLSSSVTVPSSSLGTQTYICNVNHKPSNTKVDKKVEPKSCDKTHTCPPCPAPEAAGAPSVFLFPPKPKDTLMISRTPEVTCVVVDVSHEDPEVKFNWYVDGVEVHNAKTKPREEQYNSTYRVVSVLTVLHQDWLNGKEYKCKVSNKALPAPIEKTISKAKGQPREPQVCTLPPSREEMTKNQVSLWCLVKGFYPSDIAVEWESNGQPENNYKTTPPVLDSDGSFFLYSKLTVDKSRWQQGNVFSCSVMHEALHNHYTQKSLSLSPGK chain 1: DIQMTQSPSSLSASVGDRVTITCKASQNINKHLDWYQQKPGKAPKLLIYFTNNLQTGVPSRFSGSGSGTDFTLTISSLQPEDFATYYCFQYNQGWTFGGGTKVEIKRTVAAPSVFIFPPSDEQLKSGTASVVCLLNNFYPREAKVQWKVDNALQSGNSQESVTEQDSKDSTYSLSSTLTLSKADYEKHKVYACEVTHQGLSSPVTKSFNRGECGGGGSEVTLRESGPALVKPTQTLTLTCTFSGFSLSNFGEGLSWIRQPPGKGLEWLAHIYWDDDKRYNPSLKSRLTISKDTSRNQVVLTMTNMDPVDTATYYCARRETVFYWYFDVWGQGTTVTVSSASTKGPSVFPEAPSSKSTSGGTAALGCLVKDYFPEPVTVSWNSGALTSGVHTFPAVLQSSGLYSLGSVVTVPSSSLGTQTYICNVNHKPSNTKVDKKVEPKSCDKTHTCPPCPAPEAAGAPSVFLFPPKPKDTLMISRTPEVTCVVVDVSHEDPEVKFNWYVDGVEVHNAKTKPREEQYNSTYRVVSVLTVLHQDWLNGKEYKCKVSNKALPAPIEKTISKAKGQPREPQVYTLPPCREEMTKNQVSLSCAVKGFYPSDIAVEWESNGQPENNYKTTPPVLDSDGSFFLVSKLTVDKSRWQQGNVFSCSVMHEALHNHYTQKSLSLSPGK light 1: DIQMTQSPSSLSASVGDRVTITCKASESVDHFGWSLVHWYQQKPGKAPKLLIYRASNLESGVPSRFSGSGSGTDFTLTISSLQPEDFATYYCQQSNEDPWTFGGGTKVEIKRTVAAPSVFIFPPSDEQLKSGTASVSCLLNNFYPREAKVQWKVDNALQSGNSQESVTEQDSKDSTYSLDSTLTLSKADYEKHKVYACEVTHQGLSSPVTKSFNRGEC light 2: DIQMTQSPSSLSASVGDRVTITCKASQSVDEDGDSYMNWYQQKPGKAPKLLIYAASNLESGVPSRFSGSGSGTDFTLTISSLQPEDFATYYCQQSNEDPPTFGGGTKVEIKRTVAAPSVFIFPPSDEQLKSGTASVSCLLNNFYPREAKVQWKVDNALQSGNSQESVTEQDSKDSTYSLKSTLTLSKADYEKHKVYACEVTHQGLSSPVTKSFNRGEC chain 2: EVQLVESGGGLVQPGGSLRLSCAASGFTFSSYWMYWVRQAPGKGLEWVAAITPNAGEDYYPESVKGRFTISRDNAKNSLYLQMNSLRAEDTAVYYCARGHYYYTSYSLGYWGQGTLVTVSSASTKGPSVFPLAPSSKSTSGGTAALGCLVKDYFPEPVTVSWNSGALTSGVHTFPAVLQSSGLYSLSSVVTVPSSSLGTQTYICNVNHKPSNTKVDKKVEPKSC
2 | 0.028 | 0.0124 | 0.0071 | IL13433-1042 (other) heavy: EVQLVESGGGLVQPGGSLRLSCAASGFTFSSYWMYWVRQAPGKGLEWVAAITPNAGEDYYPESVKGRFTISRDNAKNSLYLQMNSLRAEDTAVYYCARGQYYYTKYSLGYWGQGTLVTVSSASTKGPSVFPLAPSSKSTSGGTAALGCLVKDYFPEPVTVSWNSGALTSGVHTFPAVLQSSGLYSLSSVVTVPSSSLGTQTYICNVNHKPSNTKVDKKVEPKSCRKTHTCPRCPAPEAAGAPSVFLFPPKPKDTLMISRTPEVTCVVVDVSHEDPEVKFNWYVDGVEVHNAKTKPREEQYNSTYRVVSVLTVLHQDWLNGKEYKCKVSNKALPAPIEKTISKAKGQPREPQVYTLPPSREEMTKNQVSLTCLVKGFYPSDIAVEWESNGQPENNYKTTPPVLDSDGSFFLYSRLTVDKSRWQQGNVFSCSVLHEALHSHYTQKSLSLSPGK chain 1: DIQMTQSPSSLSASVGDRVTITCKASESVDHFGWSLVHWYQQKPGKAPKLLIYRASNLESGVPSRFSGSGSGTDFTLTISSLQPEDFATYYCQQSNEDPWTFGGGTKVEIKRTVAAPSVFIFPPSDEQLKSGTASVVCLLNNFYPREAKVQWKVDNALQSGNSQESVTEQDSKDSTYSLSSTLTLSKADYEKHKVYACEVTHQGLSSPVTKSFNRGECGGGGSEVTLRESGPALVKPTQTLTLTCTFSGFSLSNFGEGLSWIRQPPGKGLEWLAHIYWDDDKRYNPSLKSRLTISKDTSRNQVVLTMTNMDPVDTATYYCARRETVFYWYFDVWGQGTTVTVSSASTKGPSVFPLAPSSKSTSGGTAALGCLVKDYFPEPVTVSWNSGALTSGVHTFPAVLQSSGLYSLSSVVTVPSSSLGTQTYICNVNHKPSNTKVDKKVEPKSCEKTHTCPECPAPEAAGAPSVFLFPPKPKDTLMISRTPEVTCVVVDVSHEDPEVKFNWYVDGVEVHNAKTKPREEQYNSTYRVVSVLTVLHQDWLNGKEYKCKVSNKALPAPIEKTISKAKGQPREPQVYTLPPSREEMTKNQVSLTCEVKGFYPSDIAVEWESNGQPENNYKTTPPVLDSDGSFFLYSKLTVDKSRWQQGNVFSCSVLHEALHSHYTQKSLSLSPGK light 1: DIQMTQSPSSLSASVGDRVTITCRASQPIHNHLDWYQQKPGKAPKLLIYFGKNLQEGVPSRFSGSGSGTDFTLTISSLQPEDFATYYCFQYKKGWSFGGGTKVEIKRTVAAPSVFIFPPSDEQLKSGTASVVCLLNNFYPREAKVQWKVDNALQSGNSQESVTEQDSKDSTYSLSSTLTLSKADYEKHKVYACEVTHQGLSSPVTKSFNRGEC light 2: DIQMTQSPSSLSASVGDRVTITCRASQSVDEEGDSYMNWYQQKPGKAPKLLIYAASNLESGVPSRFSGSGSGTDFTLTISSLQPEDFATYYCQQSNEDPPTFGGGTKVEIKRTVAAPSVFIFPPSDEQLKSGTASVVCLLNNFYPREAKVQWKVDNALQSGNSQESVTEQDSKDSTYSLSSTLTLSKADYEKHKVYACEVTHQGLSSPVTKSFNRGEC chain 2: EVQLVESGGGLVQPGGSLRLSCAASGFTFSSYAMSWVRQAPGKGLEWVASISSGDTTYYPDSVKGRFTISRDNAKNSLYLQMNSLRAEDTAVYYCARNEGYYFGLTLWGQGTLVTVSSASTKGPSVFPLAPSSKSTSGGTAALGCLVKDYFPEPVTVSWNSGALTSGVHTFPAVLQSSGLYSLSSVVTVPSSSLGTQTYICNVNHKPSNTKVDKKVEPKSC

From patent publication US20240117030A1 (Pfizer, published 2024)
